From patent US20240409647A1, “BISPECIFIC BINDING PROTEINS AGAINST ALARMINS AND USES THEREOF” (SINOMAB BIOSCIENCE LIMITED, priority 2022, published 2024)
pKd: −log10 of the molar value. “And” between values parts separate entries of the source, which are not always exact repeats. Equal values may be shown once.

Tests used:
rhesus IL17RB = target: T1, rhesus IL17RB (Macaca mulatta, UniProt H9FWT9); test: ELISA, SM17 binding to coated IL-17RB protein (rhesus); parameters: species or system rhesus monkey; details: two wells
T1 construct: purchased R&D systems
T1 sequence (H9FWT9 18-502): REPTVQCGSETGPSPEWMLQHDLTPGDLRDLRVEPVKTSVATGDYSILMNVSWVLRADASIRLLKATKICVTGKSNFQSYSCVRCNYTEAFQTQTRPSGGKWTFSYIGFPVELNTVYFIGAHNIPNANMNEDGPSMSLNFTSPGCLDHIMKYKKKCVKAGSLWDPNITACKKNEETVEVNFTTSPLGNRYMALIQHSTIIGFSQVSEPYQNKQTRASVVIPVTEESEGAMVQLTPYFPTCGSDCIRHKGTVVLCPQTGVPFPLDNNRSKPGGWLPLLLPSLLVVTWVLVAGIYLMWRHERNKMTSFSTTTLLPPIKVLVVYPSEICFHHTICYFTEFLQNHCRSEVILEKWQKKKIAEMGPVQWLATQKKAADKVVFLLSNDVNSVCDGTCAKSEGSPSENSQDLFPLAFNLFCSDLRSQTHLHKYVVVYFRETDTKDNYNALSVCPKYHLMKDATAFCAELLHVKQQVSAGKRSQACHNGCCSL
Description: (§1) A standard enzyme-linked immunosorbent assay (ELISA) method was used to determine the species specificity of SM17 against IL-17RB proteins. Briefly, IL-17RB proteins from human, mouse, cynomolgus or rhesus monkey (R&D systems, Minneapolis, MN) were diluted to 2.5 μg/ml in PBS and 50 μl of IL-17RB proteins were added to each well of ELISA strip. The strips were sealed with parafilm and incubated at 4° C. overnight for coating.
(§2) On the next day, strips were washed thrice with washing buffer (0.05% Tween 20 in PBS) and blocked with 100 μl per well with blocking buffer (3% BSA in PBS) for 2 hours RT before serially diluted SM17 (at a final concentration of 10, 2, 0.4, 0.08, 0.016, 0.0032, and 0.00064 μg/ml, respectively) was added.

murine IL17RB = target: T2, murine IL17RB (Mus musculus, UniProt Q9JIP3); test: ELISA, SM17 binding to coated IL-17RB protein (murine); details: two wells
T2 construct: purchased R&D systems
T2 sequence (Q9JIP3 18-499): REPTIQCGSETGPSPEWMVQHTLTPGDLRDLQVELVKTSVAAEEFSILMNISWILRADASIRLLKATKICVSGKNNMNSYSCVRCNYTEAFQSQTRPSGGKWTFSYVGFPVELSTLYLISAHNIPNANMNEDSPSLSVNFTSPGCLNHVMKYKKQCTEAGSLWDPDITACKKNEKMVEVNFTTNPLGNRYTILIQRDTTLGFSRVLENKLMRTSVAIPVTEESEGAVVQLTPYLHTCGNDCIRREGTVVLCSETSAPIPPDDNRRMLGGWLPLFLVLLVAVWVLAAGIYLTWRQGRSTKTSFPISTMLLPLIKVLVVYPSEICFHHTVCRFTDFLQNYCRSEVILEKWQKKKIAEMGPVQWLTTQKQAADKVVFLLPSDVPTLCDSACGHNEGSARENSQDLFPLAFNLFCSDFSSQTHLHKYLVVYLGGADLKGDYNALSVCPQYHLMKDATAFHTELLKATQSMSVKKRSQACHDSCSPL
Description: as §1, §2

Human PBMCs = test: CCL17 release from human PBMC incubated with TSLP; type: cell-based; parameters: key to Intensity of specific cytokine inhibition, CCL-17: −: no inhibition; +: weak; ++: moderate; +++: strong inhibition
Description: Human PBMCs (4×10^5 per group, Ixcells) were incubated with IL-2 (10 unit/mL, PeproTech) and various alarmin/alarmin combinations to mimic the pro-inflammatory cytokines release during allergic diseases. For IL-5 and IL-13 releases, PBMCs were incubated with IL-2 and three alarmins (all 10 ng/ml) for three days. For CCL17 release, PBMC was incubated with TSLP (10 ng/ml) for 1 day. For CCL8 and IFNγ releases, PBMCs were incubated with IL-12 (10 ng/ml, Sino Biological) and IL-33 (10 ng/ml) for 1 day. Cells were pretreated with SM17 (5 μg/ml) or IgG4 isotype control (5 μg/ml) for an hour before the addition of cytokines.
Supernatants were collected and the cytokine concentration were measured by ELISA kits (R&D systems). These established assays were used to test the potency of and SM17 and bsBps. […] Results were expressed in absolute amount in pg/ml.
SM17, three different SM17-anti-IL33 bsBps and three different SM17-anti-TSLP bsBps (all at 5 μg/ml) were added to human PBMC cultures under conditions that shall induce the release of IFNγ, CCL8, CCL17 and IL-5 as described in Example 11 above. The levels of different cytokines and chemotactic factors in supernatant obtained in induced PBMC were evaluated using standard ELISA methods.

IL-33 = target: T3, IL-33 (Homo sapiens, UniProt O95760); test: Bio-Layer Interferometry (Octet), binding kinetics of bsBp to human IL-33
T3 construct: purchased R&D systems
T3 sequence (O95760 95-270): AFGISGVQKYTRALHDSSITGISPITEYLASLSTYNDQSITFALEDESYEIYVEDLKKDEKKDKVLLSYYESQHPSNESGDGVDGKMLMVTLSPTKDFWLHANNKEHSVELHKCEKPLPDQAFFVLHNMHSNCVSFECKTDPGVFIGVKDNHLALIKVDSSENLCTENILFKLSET
Description: The binding affinity of bsBp to the targeted alarmins was determined using a bio-Layer Interferometry analysis (Octet ReD96 system, Sartorius). bsBp or SM17 (20 μg/mL) was immobilized on biosensors via binding to anti-human Fab CH1 region; serially diluted human IL33 and TSLP (158.7 nM, 79.4 nM, 39.7 nM) (R&D systems) were added to plot the association and dissociation curve according to the manufacturer's specification. Biosensors immobilized with irrelevant antibody (SM03, anti-human CD22 chimeric IgG1 antibody, SinoMab BioScience Limited, 20 μg/mL) were used as control reference.

cynomolgus IL17RB = test: ELISA, SM17 binding to coated IL-17RB protein (cynomolgus); details: two wells
Description: as §1, §2

OD 450 nm Absorption, rhesus IL17RB (rhesus IL17RB; SM17 0.016 μg/mL): 0.27 and 0.17
OD 450 nm Absorption, rhesus IL17RB (rhesus IL17RB; SM17 0.08 μg/mL): 0.51 and 0.58
OD 450 nm Absorption, rhesus IL17RB (rhesus IL17RB; SM17 0.4 μg/mL): 1.12 and 1.17
OD 450 nm Absorption, rhesus IL17RB (rhesus IL17RB; SM17 2 μg/mL): 1.40 and 1.45
OD 450 nm Absorption, rhesus IL17RB (rhesus IL17RB; SM17 10 μg/mL): 1.57 and 1.59
OD 450 nm Absorption, murine IL17RB (murine IL17RB; SM17 0.0032 μg/mL): 0.12 and 0.19
OD 450 nm Absorption, murine IL17RB (murine IL17RB; SM17 0.016 μg/mL): 0.31
OD 450 nm Absorption, murine IL17RB (murine IL17RB; SM17 0.08 μg/mL): 0.78
OD 450 nm Absorption, murine IL17RB (murine IL17RB; SM17 0.4 μg/mL): 1.68 and 1.61
OD 450 nm Absorption, murine IL17RB (murine IL17RB; SM17 2 μg/mL): 2.46 and 2.44
OD 450 nm Absorption, murine IL17RB (murine IL17RB; SM17 10 μg/mL): 2.67 and 2.61
pKd (IL-33): 3.18
Kdis (IL-33): 17.9 s⁻¹
Ka (IL-33; bsBp or SM17 immobilized at 20 μg/mL): 27200 M⁻¹ s⁻¹
OD 450 nm Absorption, cynomolgus IL17RB (cynomolgus IL17RB; SM17 0.016 μg/mL): 0.34
OD 450 nm Absorption, cynomolgus IL17RB (cynomolgus IL17RB; SM17 0.08 μg/mL): 0.72 and 0.74
OD 450 nm Absorption, cynomolgus IL17RB (cynomolgus IL17RB; SM17 0.4 μg/mL): 0.89 and 0.97
OD 450 nm Absorption, cynomolgus IL17RB (cynomolgus IL17RB; SM17 2 μg/mL): 1.13 and 1.12
OD 450 nm Absorption, cynomolgus IL17RB (cynomolgus IL17RB; SM17 10 μg/mL): 1.33 and 1.37
Substance: SM17: humanized anti-IL17RB monoclonal antibody, human IgG4 isotype; HC SEQ ID NO: 32, LC SEQ ID NO: 33
Intensity of specific cytokine inhibition, CCL-17 (Human PBMCs; 5 μg/ml, human PBMC): −
CCL17 release (in words) (Human PBMCs; SM17 5 μg/ml, TSLP 10 ng/ml, 1 day, vs IgG4 isotype control): no inhibitory effects
